Source: publication doi:10.64898/2025.12.17.694860, “Structural basis for the inhibition of Trypanosoma brucei enolase by a camelid single-domain antibody” (bioRxiv, 2025)

Key:
[1] = molecular target: T1, Trypanosoma brucei enolase (Trypanosoma brucei (sequence identical …)); assay: ITC; conditions: both partners purified
T1 construct: Enolase (phosphopyruvate hydratase) of Trypanosoma brucei; printed MM = 48.4 kDa; Homodimer by analytical SEC and in the crystal; also called TbrENO; T. brucei enolase; source: E. coli, purified (IMAC, SEC); not shown: His tag, N-terminal, kept

[2] = molecular target: T1, Trypanosoma brucei enolase; assay: SEC; conditions: both partners purified

B1: sdAbR1-10 (VHH)
VHH: QVQLQESGGGLVQPGGSLRLSCAAPGSIFSIFSGNIMGWYRQAPGKQRDFVASISSGGATNYADSVKGRFTISRDNAKNTVYLQMNNLKPEDTAVYYCNTVGGVHTNSWGQGTQVTVSS
Kd [1]: ~20 nM | stoichiometry N [1]: ~1 sdAbR1-10 per TbrENO monomer | stoichiometry N [2]: 2 sdAbR1-10 per TbrENO dimer
